Data on 14 molecules can be found in patent US20060194720A1 (SANWA KAGAKU KENKYUSHO, published 2006).

Where no end group is shown, it is not given here.

This experiment has as its target human GLP-1 receptor (human, UniProt P43220 24-463). Put plainly: cell-based or functional assay.
In the case of HSEGTFTSDVSSYLEGQAAKEFIAWLVKGRRRR-NH2 [[Ser^8]-GLP-1 (7-35)-Arg-Arg-Arg-Arg-NH2], the “Cyclic AMP-producing activity, relative to naturally occurring GLP-1 (=100%), at 1 × 10^-10 M” value stood at 75.6%; the “Cyclic AMP-producing activity, relative to naturally occurring GLP-1 (=100%), at 1 × 10^-11 M” value is -17%; the “Cyclic AMP-producing activity, relative to naturally occurring GLP-1 (=100%), at × 10^-9 M” value was 102%.

HSEGTFTSDVSSYLEGQAAKEFIAWLVKGR-NH2 [[Ser^8]-GLP-1 (7-35)-Arg-NH2]: the “Cyclic AMP-producing activity, relative to naturally occurring GLP-1 (=100%), at 1 × 10^-10 M” value was found to be 111%; the “Cyclic AMP-producing activity, relative to naturally occurring GLP-1 (=100%), at 1 × 10^-11 M” value is 97.9%; the “Cyclic AMP-producing activity, relative to naturally occurring GLP-1 (=100%), at × 10^-9 M” value was determined as 83.6%.

HSEGTFTSDVSSYLEGQAAKEFIAWLVKGKKKKKR-NH2 [[Ser^8]-GLP-1 (7-35)-Lys-Lys-Lys-Lys-Lys-Arg-NH2]: the “Cyclic AMP-producing activity, relative to naturally occurring GLP-1 (=100%), at 1 × 10^-10 M” value came out at 55.3%; the “Cyclic AMP-producing activity, relative to naturally occurring GLP-1 (=100%), at 1 × 10^-11 M” value amounted to 7.9%; the “Cyclic AMP-producing activity, relative to naturally occurring GLP-1 (=100%), at × 10^-9 M” value was determined as 63.4%.

Turning to HSEGTFTSDVSSYLEGQAAKEFIAWLVKGRRRRRR-NH2 [[Ser^8]-GLP-1 (7-35)-Arg-Arg-Arg-Arg-Arg-Arg-NH2], the “Cyclic AMP-producing activity, relative to naturally occurring GLP-1 (=100%), at 1 × 10^-10 M” value is 48.6%; the “Cyclic AMP-producing activity, relative to naturally occurring GLP-1 (=100%), at 1 × 10^-11 M” value worked out at 54.3%; the “Cyclic AMP-producing activity, relative to naturally occurring GLP-1 (=100%), at × 10^-9 M” value amounted to 75.6%.

Take HSEGTFTSDVSSYLEGQAAKEFIAWLVKGKKR-NH2 [[Ser^8]-GLP-1 (7-35)-Lys-Lys-Arg-NH2]: the “Cyclic AMP-producing activity, relative to naturally occurring GLP-1 (=100%), at 1 × 10^-10 M” value was found to be 88.9%; the “Cyclic AMP-producing activity, relative to naturally occurring GLP-1 (=100%), at 1 × 10^-11 M” value was 36.2%; the “Cyclic AMP-producing activity, relative to naturally occurring GLP-1 (=100%), at × 10^-9 M” value stood at 81.6%.

Regarding HSEGTFTSDVSSYLEGQAAKEFIAWLVKGKKKKKKKR-NH2 [[Ser^8]-GLP-1 (7-35)-Lys-Lys-Lys-Lys-Lys-Lys-Lys-Arg-NH2], the “Cyclic AMP-producing activity, relative to naturally occurring GLP-1 (=100%), at 1 × 10^-10 M” value turned out to be 55.6%; the “Cyclic AMP-producing activity, relative to naturally occurring GLP-1 (=100%), at 1 × 10^-11 M” value was 8.8%; the “Cyclic AMP-producing activity, relative to naturally occurring GLP-1 (=100%), at × 10^-9 M” value was 92.6%.

In the case of HSEGTFTSDVSSYLEGQAAKEFIAWLVKGRRRRRRRRR-NH2 [[Ser^8]-GLP-1 (7-35)-Arg-Arg-Arg-Arg-Arg-Arg-Arg-Arg-Arg-NH2], the “Cyclic AMP-producing activity, relative to naturally occurring GLP-1 (=100%), at 1 × 10^-10 M” value is 87.4%; the “Cyclic AMP-producing activity, relative to naturally occurring GLP-1 (=100%), at 1 × 10^-11 M” value is 74.5%; the “Cyclic AMP-producing activity, relative to naturally occurring GLP-1 (=100%), at × 10^-9 M” value was 95.9%.

With HSEGTFTSDVSSYLEGQAAKEFIAWLVKGRRR-NH2 [[Ser^8]-GLP-1 (7-35)-Arg-Arg-Arg-NH2], the “Cyclic AMP-producing activity, relative to naturally occurring GLP-1 (=100%), at 1 × 10^-10 M” value was determined as 95.5%; the “Cyclic AMP-producing activity, relative to naturally occurring GLP-1 (=100%), at 1 × 10^-11 M” value was found to be 56.4%; the “Cyclic AMP-producing activity, relative to naturally occurring GLP-1 (=100%), at × 10^-9 M” value worked out at 91.2%.

For HSEGTFTSDVSSYLEGQAAKEFIAWLVKGRKK-NH2 [[Ser^8]-GLP-1 (7-35)-Arg-Lys-Lys-NH2], the “Cyclic AMP-producing activity, relative to naturally occurring GLP-1 (=100%), at 1 × 10^-10 M” value was found to be 104%; the “Cyclic AMP-producing activity, relative to naturally occurring GLP-1 (=100%), at 1 × 10^-11 M” value came out at 53.2%; the “Cyclic AMP-producing activity, relative to naturally occurring GLP-1 (=100%), at × 10^-9 M” value worked out at 88.8%.

For the molecule HSEGTFTSDVSSYLEGQAAKEFIAWLVKGKKKKKKKKKKR-NH2 [[Ser^8]-GLP-1 (7-35)-Lys-Lys-Lys-Lys-Lys-Lys-Lys-Lys-Lys-Lys-Arg-NH2], the “Cyclic AMP-producing activity, relative to naturally occurring GLP-1 (=100%), at 1 × 10^-10 M” value amounted to 20.8%; the “Cyclic AMP-producing activity, relative to naturally occurring GLP-1 (=100%), at 1 × 10^-11 M” value was found to be 7.5%; the “Cyclic AMP-producing activity, relative to naturally occurring GLP-1 (=100%), at × 10^-9 M” value was found to be 55.4%.

Consider HSEGTFTSDVSSYLEGQAAKEFIAWLVKGRRRRRRR-NH2 [[Ser^8]-GLP-1 (7-35)-Arg-Arg-Arg-Arg-Arg-Arg-Arg-NH2], for which the “Cyclic AMP-producing activity, relative to naturally occurring GLP-1 (=100%), at 1 × 10^-10 M” value was determined as 81.1%; the “Cyclic AMP-producing activity, relative to naturally occurring GLP-1 (=100%), at 1 × 10^-11 M” value turned out to be 64.9%; the “Cyclic AMP-producing activity, relative to naturally occurring GLP-1 (=100%), at × 10^-9 M” value is 80.6%.

With HSEGTFTSDVSSYLEGQAAKEFIAWLVKGKKKR-NH2 [[Ser^8]-GLP-1 (7-35)-Lys-Lys-Lys-Arg-NH2], the “Cyclic AMP-producing activity, relative to naturally occurring GLP-1 (=100%), at 1 × 10^-10 M” value was 96.6%; the “Cyclic AMP-producing activity, relative to naturally occurring GLP-1 (=100%), at 1 × 10^-11 M” value is 45%; the “Cyclic AMP-producing activity, relative to naturally occurring GLP-1 (=100%), at × 10^-9 M” value is 86.7%.

Turning to HSEGTFTSDVSSYLEGQAAKEFIAWLVKGKR-NH2 [[Ser^8]-GLP-1 (7-35)-Lys-Arg-NH2], the “Cyclic AMP-producing activity, relative to naturally occurring GLP-1 (=100%), at 1 × 10^-10 M” value amounted to 113%; the “Cyclic AMP-producing activity, relative to naturally occurring GLP-1 (=100%), at 1 × 10^-11 M” value came out at 100%; the “Cyclic AMP-producing activity, relative to naturally occurring GLP-1 (=100%), at × 10^-9 M” value was determined as 80.5%.

HSEGTFTSDVSSYLEGQAAKEFIAWLVKGRRRRR-NH2 [[Ser^8]-GLP-1 (7-35)-Arg-Arg-Arg-Arg-Arg-NH2]: the “Cyclic AMP-producing activity, relative to naturally occurring GLP-1 (=100%), at 1 × 10^-10 M” value is 64.7%; the “Cyclic AMP-producing activity, relative to naturally occurring GLP-1 (=100%), at 1 × 10^-11 M” value worked out at 34%; the “Cyclic AMP-producing activity, relative to naturally occurring GLP-1 (=100%), at × 10^-9 M” value worked out at 106%.
